The results in this text go back to PMC8799657 (Nature Communications, 2022).

Assay [1] deals with T1, soluble human transferrin receptor 1 (human, UniProt P02786).
T1 construct: also called sTfR1; human sTfR1
In words: BLI. The conditions noted are these: both partners purified.

Assay [2] has as its target T2, human transferrin receptor 1 on the cell surface (human (endogenous in erythroblasts), UniProt P02786).
T2 construct: also called hTfR1; TfR1
The conditions noted are these: one partner purified.

T2 sequence (P02786 whole entry): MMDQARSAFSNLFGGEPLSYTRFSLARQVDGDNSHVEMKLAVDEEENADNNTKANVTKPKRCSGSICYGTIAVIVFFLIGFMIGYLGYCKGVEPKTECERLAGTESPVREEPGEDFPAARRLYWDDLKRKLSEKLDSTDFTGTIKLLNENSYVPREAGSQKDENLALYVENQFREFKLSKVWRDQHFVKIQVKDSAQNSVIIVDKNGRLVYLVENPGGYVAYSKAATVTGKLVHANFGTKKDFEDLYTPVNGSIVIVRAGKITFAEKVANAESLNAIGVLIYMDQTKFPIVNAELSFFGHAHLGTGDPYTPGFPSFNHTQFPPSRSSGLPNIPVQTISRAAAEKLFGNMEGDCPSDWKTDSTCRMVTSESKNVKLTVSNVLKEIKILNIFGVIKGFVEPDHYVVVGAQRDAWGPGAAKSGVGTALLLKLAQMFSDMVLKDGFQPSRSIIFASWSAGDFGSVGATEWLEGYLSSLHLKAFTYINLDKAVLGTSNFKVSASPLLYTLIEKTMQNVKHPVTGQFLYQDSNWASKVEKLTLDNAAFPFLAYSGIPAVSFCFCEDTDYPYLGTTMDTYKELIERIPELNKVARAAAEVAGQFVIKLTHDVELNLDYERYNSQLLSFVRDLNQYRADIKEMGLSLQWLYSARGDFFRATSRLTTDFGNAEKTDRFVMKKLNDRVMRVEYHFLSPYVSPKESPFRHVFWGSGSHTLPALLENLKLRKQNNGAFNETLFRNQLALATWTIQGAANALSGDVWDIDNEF
T1 sequence (P02786 121-760): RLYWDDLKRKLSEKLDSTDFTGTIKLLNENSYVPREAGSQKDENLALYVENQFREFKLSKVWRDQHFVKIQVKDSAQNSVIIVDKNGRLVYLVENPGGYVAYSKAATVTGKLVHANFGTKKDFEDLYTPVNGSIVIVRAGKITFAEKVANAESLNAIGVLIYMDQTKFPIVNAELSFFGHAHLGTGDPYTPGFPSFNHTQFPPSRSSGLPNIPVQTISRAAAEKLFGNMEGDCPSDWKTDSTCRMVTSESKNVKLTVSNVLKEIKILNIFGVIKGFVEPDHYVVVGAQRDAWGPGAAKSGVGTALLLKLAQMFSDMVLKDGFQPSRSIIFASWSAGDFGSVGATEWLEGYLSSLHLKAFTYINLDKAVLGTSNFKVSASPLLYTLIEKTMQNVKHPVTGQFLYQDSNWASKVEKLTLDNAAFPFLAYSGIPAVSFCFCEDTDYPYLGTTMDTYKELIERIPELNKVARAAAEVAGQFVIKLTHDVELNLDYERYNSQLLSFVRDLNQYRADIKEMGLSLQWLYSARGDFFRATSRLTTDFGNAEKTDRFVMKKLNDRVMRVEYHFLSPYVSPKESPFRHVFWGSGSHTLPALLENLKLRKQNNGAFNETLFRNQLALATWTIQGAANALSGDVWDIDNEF

B1: Fab fragment of the mouse/human chimeric 128.1 IgG1 antibody (Fab, V domains shown)
VH: EVQLQQSGPELVKPGASMKISCKASGYSFTGYTMNWVKQSHGENLEWIGRINPHNGGTDYNQKFKDKAPLTVDKSSNTAYMELLSLTSGDSAVYYCARGYYYYSLDYWGQGTSVTVSS
VL: QIVLTQSPAIMSVSPGEKVTMTCSASSSIRYIHWYQQRPGTSPKRWIYDTSNLASGVPARFSGSGSGTSYSLTISSMEAEDAATYYCHQRNSYPWTFGGGTRLEIR
notes: also called Fab ch128.1/IgG1; ch128.1 Fab
Take B1: the binding result in assay [1] is “binds”.

B2: mouse/human chimeric IgG1/κ antibody ch128.1/IgG1 (antibody, V domains shown)
VH: B1 VH
VL: B1 VL
In the case of B2, the binding result in assay [2] was “binds”.
